Where a chain is given by its changes, count along the chain named.
T1: C5aR expressed on purified human neutrophils (human, UniProt P21730 1-350)
T1 sequence (looked up): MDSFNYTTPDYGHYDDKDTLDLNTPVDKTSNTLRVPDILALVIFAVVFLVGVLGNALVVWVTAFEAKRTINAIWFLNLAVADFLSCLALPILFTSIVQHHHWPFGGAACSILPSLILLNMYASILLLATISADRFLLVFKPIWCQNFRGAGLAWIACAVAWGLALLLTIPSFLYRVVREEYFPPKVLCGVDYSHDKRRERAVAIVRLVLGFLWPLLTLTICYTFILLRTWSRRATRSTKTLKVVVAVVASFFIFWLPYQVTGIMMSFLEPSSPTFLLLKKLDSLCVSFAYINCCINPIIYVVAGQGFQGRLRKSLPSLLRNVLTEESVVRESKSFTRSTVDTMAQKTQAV

T2: engineered version of human C5aR expressed on CHO cells of the PathHunter β-arrestin assay (DiscoveRx) (human, UniProt P21730 1-350)
T2 sequence (looked up): T1 sequence (looked up)

T3: Mouse FcRn p51 [1-297]/AviHis/p14 biotinylated (mouse, UniProt Q61559 22-298; P01887 21-119, biotinylated in vitro with BirA (Avi tag))
T3 construct: Heterodimer; UniProt Q61559 (p51); also called Murine FcRn
T3 chain 1: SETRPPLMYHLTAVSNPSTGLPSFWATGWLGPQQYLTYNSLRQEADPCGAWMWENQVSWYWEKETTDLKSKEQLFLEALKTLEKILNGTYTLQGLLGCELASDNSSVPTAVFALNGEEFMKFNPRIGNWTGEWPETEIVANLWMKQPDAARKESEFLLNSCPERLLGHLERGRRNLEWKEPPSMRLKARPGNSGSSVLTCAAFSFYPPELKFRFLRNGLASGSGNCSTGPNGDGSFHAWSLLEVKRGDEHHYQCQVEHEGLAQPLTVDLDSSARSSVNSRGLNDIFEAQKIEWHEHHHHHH
T3 chain 2: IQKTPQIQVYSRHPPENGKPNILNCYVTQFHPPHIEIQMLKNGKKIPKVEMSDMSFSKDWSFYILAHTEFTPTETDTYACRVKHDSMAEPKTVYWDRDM

T4: Rat FcRn p51 [1-298]/AviHis/p14 biotinylated (rat, UniProt P13599 23-299; P07151 21-119, biotinylated in vitro with BirA (Avi tag))
T4 construct: Heterodimer; UniProt P13599 (p51)
T4 sequence 1: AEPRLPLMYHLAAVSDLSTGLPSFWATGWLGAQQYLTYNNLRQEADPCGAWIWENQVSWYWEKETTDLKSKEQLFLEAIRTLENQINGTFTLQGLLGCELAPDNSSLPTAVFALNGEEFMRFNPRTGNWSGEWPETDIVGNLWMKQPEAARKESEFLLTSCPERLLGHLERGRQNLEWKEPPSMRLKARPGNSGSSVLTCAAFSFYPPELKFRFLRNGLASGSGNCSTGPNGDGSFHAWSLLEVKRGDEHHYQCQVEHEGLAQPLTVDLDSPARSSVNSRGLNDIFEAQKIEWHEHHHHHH
T4 sequence 2: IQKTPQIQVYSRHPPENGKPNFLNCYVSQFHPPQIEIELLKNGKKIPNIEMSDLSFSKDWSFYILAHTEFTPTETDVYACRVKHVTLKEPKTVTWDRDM

B1: MAB #2 (antibody, human IgG1, lambda)
heavy: EVQLVESGGGLVKPGGSLRLSCAASGFTFSSYAMHWVRQAPGKGLEWVGRIKSVAQGGTTDYAAHVKGRFTISRDDSKNTLYLQMNSLKTEDTAVYYCARVSHSTFDVWGQGTLVTVSSASTKGPSVFPLAPSSKSTSGGTAALGCLVKDYFPEPVTVSWNSGALTSGVHTFPAVLQSSGLYSLSSVVTVPSSSLGTQTYICNVNHKPSNTKVDKRVEPKSCDKTHTCPPCPAPEAEGAPSVFLFPPKPKDTLMISRTPEVTCVVVDVSHEDPEVKFNWYVDGVEVHNAKTKPREEQYNSTYRVVSVLTVLHQDWLNGKEYKCKVSNKALPSSIEKTISKAKGQPREPQVYTLPPSREEMTKNQVSLTCLVKGFYPSDIAVEWESNGQPENNYKTTPPVLDSDGSFFLYSKLTVDKSRWQQGNVFSCSVMHEALHNHYTQKSLSLSPGK
light: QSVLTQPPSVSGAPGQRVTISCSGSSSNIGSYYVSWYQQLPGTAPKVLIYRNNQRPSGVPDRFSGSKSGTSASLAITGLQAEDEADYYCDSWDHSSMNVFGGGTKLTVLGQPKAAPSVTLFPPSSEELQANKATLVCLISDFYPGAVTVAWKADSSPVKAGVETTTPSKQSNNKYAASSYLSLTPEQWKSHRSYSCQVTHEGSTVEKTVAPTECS
notes: lambda 1 light chain
B2: MAB #1 (antibody, human IgG1, lambda)
heavy: B1 heavy with V54K, H103F
light: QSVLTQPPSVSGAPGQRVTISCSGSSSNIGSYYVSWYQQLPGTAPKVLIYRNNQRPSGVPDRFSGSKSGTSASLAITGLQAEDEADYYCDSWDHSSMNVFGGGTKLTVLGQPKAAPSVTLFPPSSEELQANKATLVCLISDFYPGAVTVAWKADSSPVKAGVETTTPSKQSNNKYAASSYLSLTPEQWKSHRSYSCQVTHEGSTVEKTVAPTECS
notes: lambda 1 light chain, VH3-15 framework

Legend:
[1] = target: T1, C5aR expressed on purified human …; experiment: cell-based or functional assay
[2] = target: T2, engineered version of human C5aR …; experiment: cell-based or functional assay
[3] = target: T2, engineered version of human C5aR …; experiment: cell-based or functional assay; remark: listed apart in the source
[4] = target: T5, Protein A; experiment: Protein Panel Profiling (3P), MSD ECL, coated antigen, IgG 100 nM
T5 construct: control of the 3P panel
Procedure: (§1) 32 different proteins and controls were coated on two 384-well MSD standard plates at a concentration of 1.0 μg/mL at 4° C. over night. The coating solution was discarded and plates were blocked with 50 μL 3% (w/v) BSA in PBS for one hour at RT on a microtiter plate shaker (˜500 rpm) followed by three washing steps with 50 μL washing buffer (PBS with 0.05% (v/v) Tween 20). IgG samples were diluted to 100 nM and 10 nM in assay buffer (PBS with 0.5% (w/v) BSA, 0.05% (v/v) Tween 20). As controls, isotype control antibody MOR03207 (IgG1f_AEASS) and assay buffer were used. Samples and controls were added at 30 μL/well and incubated for three hours at RT on a microtiter plate shaker. The plates were washed three times and 30 μL detection antibody (ECL-labeled anti-human Fab) were added per well and incubated for one hour on a microtiter plate shaker (˜500 rpm). After washing the MSD plate and adding 35 μL/well MSD Read Buffer T with surfactant, electro-chemiluminescence signals were detected using a SECTOR® Imager S600 instrument (Meso Scale Diagnostics).
(§2) For evaluation, binding signals of the antibody sample to a certain protein were divided by the respective binding signals of the reference antibody MOR03207 resulting in a binding ratio (BR). The cumulative binding ratio (CBR) of all proteins except the controls (25 in total) was then calculated: CBR up to 150 indicates an IgG without detectable unspecific binding. Values above 150 indicates an IgG with increased unspecific binding compared to the reference antibody MOR03207.

[5] = target: T6, Fc (h); experiment: as above
T6 construct: '(h)' on the sheet read as human
Procedure: as §1, §2

[6] = target: Pepsinogen; experiment: as above
Procedure: as §1, §2

[7] = target: RNase B; experiment: as above
Procedure: as §1, §2

[8] = target: T7, Serum albumin (h) (human); experiment: as above
T7 construct: '(h)' on the sheet read as human
Procedure: as §1, §2

[9] = target: RNase A; experiment: as above
Procedure: as §1, §2

[10] = target: T8, anti-human Fab (Dianova); experiment: as above
T8 construct: control of the 3P panel; it captures human IgG as such, so a ratio of 1 means a signal equal to that of MOR03207
Procedure: as §1, §2

[11] = target: T9, Hemoglobin (h) (human); experiment: as above
T9 construct: '(h)' on the sheet read as human
Procedure: as §1, §2

[12] = target: T10, Cell surface rec. 1_Lys (h); experiment: as above
T10 construct: identity not disclosed
Procedure: as §1, §2

[13] = target: T11, Cell surface rec. 3_Fc (h); experiment: as above
T11 construct: identity not disclosed
Procedure: as §1, §2

[14] = target: GFP; experiment: as above
Procedure: as §1, §2

[15] = target: bovine transferrin (bovine, UniProt Q29443 20-704); experiment: as above
Procedure: as §1, §2

[16] = target: T12, full-length human C5L2 expressed on CHO Flp-In cells (human, UniProt Q9P296 1-337); experiment: FACS, CHO Flp-In cells expressing human C5L2, single IgG concentration
T12 construct: also called C5a anaphylatoxin chemotactic receptor 2

[17] = target: T3, Mouse FcRn p51 [1-297]/AviHis/p14 …; experiment: BLI (Octet HTX), biotinylated FcRn on SA sensors, IgG titrated, steady state fit, apparent KD, pH 7.2
Source text: (§3) 0.5 nm of biotinylated human, cynomolgus, mouse and rat FcRn were captured on streptavidin (SA) sensors (FortéBIO, Pall Life Sciences). […] All sensorgrams were fitted using Data Analysis Software 10.0 (FortéBIO, Pall Life Sciences) to determine the apparent affinity and the data was fitted with a steady state model.

[18] = target: T4, Rat FcRn p51 [1-298]/AviHis/p14 …; experiment: as above
Source text: as §3

T12 sequence (Q9P296 whole entry): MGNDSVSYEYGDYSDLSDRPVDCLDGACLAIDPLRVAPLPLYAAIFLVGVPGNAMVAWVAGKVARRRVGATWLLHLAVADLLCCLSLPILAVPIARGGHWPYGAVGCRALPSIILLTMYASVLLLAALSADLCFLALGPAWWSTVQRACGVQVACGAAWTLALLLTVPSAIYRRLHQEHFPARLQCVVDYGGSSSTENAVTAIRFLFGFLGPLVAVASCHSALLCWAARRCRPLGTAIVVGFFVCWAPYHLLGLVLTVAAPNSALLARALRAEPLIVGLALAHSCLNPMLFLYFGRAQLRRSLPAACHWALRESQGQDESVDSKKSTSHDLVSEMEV
Sequence of bovine transferrin (Q29443 20-704 limits assumed): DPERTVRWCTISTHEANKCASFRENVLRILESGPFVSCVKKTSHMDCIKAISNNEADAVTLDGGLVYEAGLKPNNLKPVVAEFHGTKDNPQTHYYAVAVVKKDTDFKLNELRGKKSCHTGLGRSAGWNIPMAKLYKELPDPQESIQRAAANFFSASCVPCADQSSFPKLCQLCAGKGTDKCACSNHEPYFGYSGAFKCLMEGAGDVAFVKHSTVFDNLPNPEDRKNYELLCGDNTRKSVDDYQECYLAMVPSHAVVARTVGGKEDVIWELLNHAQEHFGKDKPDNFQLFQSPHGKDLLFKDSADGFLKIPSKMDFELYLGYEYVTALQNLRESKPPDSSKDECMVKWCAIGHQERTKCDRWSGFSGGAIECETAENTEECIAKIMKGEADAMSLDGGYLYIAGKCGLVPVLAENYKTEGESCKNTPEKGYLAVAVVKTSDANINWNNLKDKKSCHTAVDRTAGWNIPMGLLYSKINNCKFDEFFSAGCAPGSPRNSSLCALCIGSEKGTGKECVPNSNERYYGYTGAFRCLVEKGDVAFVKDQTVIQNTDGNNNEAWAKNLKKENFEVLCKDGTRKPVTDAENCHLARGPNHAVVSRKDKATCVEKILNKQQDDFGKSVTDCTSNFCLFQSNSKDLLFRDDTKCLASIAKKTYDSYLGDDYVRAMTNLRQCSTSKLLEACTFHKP
T7 sequence (P02768 25-609): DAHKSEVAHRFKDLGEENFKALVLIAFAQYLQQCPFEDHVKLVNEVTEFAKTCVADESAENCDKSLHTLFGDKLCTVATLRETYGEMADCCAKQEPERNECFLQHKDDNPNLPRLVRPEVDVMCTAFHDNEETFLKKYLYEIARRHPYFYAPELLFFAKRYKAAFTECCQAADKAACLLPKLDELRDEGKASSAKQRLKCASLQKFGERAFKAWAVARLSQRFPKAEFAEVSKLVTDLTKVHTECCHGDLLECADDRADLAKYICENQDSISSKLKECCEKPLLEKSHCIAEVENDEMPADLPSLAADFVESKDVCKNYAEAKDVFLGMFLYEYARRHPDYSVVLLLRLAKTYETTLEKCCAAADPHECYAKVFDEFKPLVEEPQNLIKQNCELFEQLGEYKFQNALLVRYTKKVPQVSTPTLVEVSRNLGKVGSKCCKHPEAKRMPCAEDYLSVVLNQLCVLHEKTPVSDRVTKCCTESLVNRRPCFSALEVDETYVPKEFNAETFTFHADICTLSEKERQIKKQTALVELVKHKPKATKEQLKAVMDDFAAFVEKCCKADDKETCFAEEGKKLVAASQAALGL
Sequence of RNase B (P61823 27-150): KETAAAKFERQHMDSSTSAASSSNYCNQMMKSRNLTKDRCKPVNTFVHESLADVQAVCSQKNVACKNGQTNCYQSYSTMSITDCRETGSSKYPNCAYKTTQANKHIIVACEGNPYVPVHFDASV
Sequence of RNase A (P61823 27-150): as above
T9 sequence (P69905 2-142, chain 1 of 2): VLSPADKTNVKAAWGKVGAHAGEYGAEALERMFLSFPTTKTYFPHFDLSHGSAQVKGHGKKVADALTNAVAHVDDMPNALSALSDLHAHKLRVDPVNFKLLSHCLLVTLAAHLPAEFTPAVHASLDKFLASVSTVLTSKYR
T9 sequence (P68871 2-147, chain 2 of 2, further chain): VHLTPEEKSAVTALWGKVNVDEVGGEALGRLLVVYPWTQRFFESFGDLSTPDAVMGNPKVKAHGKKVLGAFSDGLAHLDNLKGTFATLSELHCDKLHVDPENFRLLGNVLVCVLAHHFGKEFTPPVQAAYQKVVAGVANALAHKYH

Binder	IgG concentration for 50% inhibition of CD11b upregulation, granulocytes, 15 nM human C5a [1] [nM]	IgG concentration for 50% inhibition of CD11b upregulation, granulocytes, 150 nM human C5a [1] [nM]	Activity of human C5a EC50 (nM) in presence of 50 nM anti-C5aR antibody, β-arrestin recruitment [2] [nM]	x fold reduced activity of C5a in presence of anti-C5aR antibody (50 nM) [2] [fold]	[%] inhibition at 1.2 nM C5a and 50 nM IgG, β-arrestin recruitment [3] [%]	[%] inhibition at 11 nM C5a and 50 nM IgG, β-arrestin recruitment [3] [%]	[%] inhibition at 100 nM C5a and 50 nM IgG, β-arrestin recruitment [3] [%]	binding ratio (signal / signal of MOR03207) [4]	binding ratio (signal / signal of MOR03207) [5]	binding ratio (signal / signal of MOR03207) [6]	binding ratio (signal / signal of MOR03207) [7]	binding ratio (signal / signal of MOR03207) [8]	binding ratio (signal / signal of MOR03207) [9]	binding ratio (signal / signal of MOR03207) [10]	binding ratio (signal / signal of MOR03207) [11]	binding ratio (signal / signal of MOR03207) [12]	binding ratio (signal / signal of MOR03207) [13]	binding ratio (signal / signal of MOR03207) [14]	binding ratio (signal / signal of MOR03207) [15]	binding result [16]	other results
B1	17	114	37	12.8	90.5	75.2	31.2	1	3	5	2	2	6	1	2	2	2	2	9	no binding (tested: 300 nM)	Kd [17]: 130 nM; Kd [18]: 300 nM
B2	12	42	37	12.8	91.9	79.9	41.8	1	2	4	2	2	4	1	2	2	2	2	19	no binding (tested: 300 nM)	Kd [17]: 39 nM; Kd [18]: 110 nM

Source: patent US20240400657A1 (MorphoSys, published 2024)
